Results on 14 substances are retold here after patent publication US20070128190A1.

One may read the Ki as a measure of affinity in units of concentration, obtained from inhibition or displacement. Read a low Ki as a stronger hold on the target.

Where only a bound is given, the exact number is not on record here.

The target of assay [1] is human α2β1 integrin on human cells (platelets, leukocytes, HT1080) (human) (UniProt P17301). Description: cell-based or functional assay.
Assay [2] addresses human platelet α2β1 integrin (immobilized on microtiter plates) (human) (UniProt P17301). Put plainly: competition with Eu-TMC-2206 on platelet α2β1-coated plates.
The target of assay [3] is TMC-2206. Description: fusion protein competing Eu-TMC-2206 off α2β1-coated plate.
The target of assay [4] is TMC-2206. Put plainly: ELISA, GST fusion protein on immobilized TMC-2206 (Kd apparent).
Assay [5] deals with TMC-2206. Put plainly: ELISA, GST fusion protein on immobilized TMC-2206.
The target of assay [6] is Humanized TMC-2206 (hIgG4/κ VH12.0/VL10.0Q). Put plainly: fusion protein competing Eu-humanized TMC-2206 off α2β1-coated plates.
Assay [7] deals with TMC-2206. Put plainly: ELISA, GST fusion protein on immobilized TMC-2206, Kd estimated from EC50.

10G11 (antibody) had an EC50, adhesion of resting platelets to Type I collagen in assay [1] above 200 nM.

For the substance AK7 (antibody), the Ki in assay [2] came out at 0.07 nM.

For “GST-hα2 I domain E44V (from UniProt P17301 153-368)”, in the assay with TMC-2206 [3], the Ki was determined as 0.35 nM. Further, in the assay with TMC-2206 [4], the Kd came to 0.23 nM.

As for “GST-hα2 I domain I21V (from UniProt P17301 153-368)”, the Ki with TMC-2206 [3] was 0.24 nM. Besides, in the assay with TMC-2206 [4], the Kd came out at 0.28 nM.

The substance “GST-hα2 I domain N67E (from UniProt P17301 153-368)” returned a Ki with TMC-2206 [3] of 0.4 nM. The Kd with TMC-2206 [4] was 0.28 nM.

On to “GST-hα2 I domain Q48T (from UniProt P17301 153-368)”, for which the Ki with TMC-2206 [3] worked out at 0.73 nM. The Kd with TMC-2206 [4] came to 0.19 nM.

As to “GST-hα2 I domain Q105E (from UniProt P17301 153-368)”, the Ki in the assay with TMC-2206 [3] stood at 0.38 nM. Also, the Kd with TMC-2206 [4] is 0.15 nM.

In the assay with TMC-2206 [3], “GST-hα2 I domain T76D (from UniProt P17301 153-368)” displayed a Ki of 0.15 nM. Moreover, the Kd with TMC-2206 [4] was 0.17 nM.

For the substance “GST-hα2 I domain V70I (from UniProt P17301 153-368)”, the Ki with TMC-2206 [3] came to 0.86 nM. Besides, the Kd in the assay with TMC-2206 [4] came out at 0.44 nM.

The substance “GST-hα2 I domain V71I (from UniProt P17301 153-368)” displayed a Ki in the assay with TMC-2206 [3] of 0.83 nM. In addition, the Kd in the assay with TMC-2206 [4] was determined as 0.19 nM.

On to “GST-hα2 I domain Y77F (from UniProt P17301 153-368)”, for which the Ki with TMC-2206 [3] is 0.39 nM. Moreover, the Kd with TMC-2206 [4] came to 0.22 nM.

Regarding “GST-hα2 I domain Y93H (from UniProt P17301 153-368)”, the fold decrease in apparent affinity in the assay with TMC-2206 [5] turned out to be 23 fold. Besides, in the assay with TMC-2206 [4], the Kd was 6.1 nM.

For “GST-mα2 I domain H93Y (from UniProt Q62469 150-377)”, in the assay with TMC-2206 [3], the Ki was 20.2 nM and the fold decrease in potency relative to the wt human α2 I domain was found to be 200 fold.

On to “GST-rat α2 I domain fusion protein (from UniProt Q62469 150-377)”, for which the Ki came out at 5.23 nM in assay [6] and 3.8 nM with TMC-2206 [3]. This substance registered a fold decrease in Ki compared to the human α2 I domain in assay [6] of 9 fold. Besides, the fold shift in Kd compared to human α2 in the assay with TMC-2206 [5] amounted to 3 fold. Further, in the assay with TMC-2206 [7], the Kd was 0.54 nM.
